How the values were obtained:
[1] = target: 2AT-L, covalently stabilized triangular trimer composed of three Aβ17-36 β-hairpin peptides (2AM-LCC); assay: SDS-PAGE; silver stained; Tris buffer at pH 6.8 with 2% (w/v) SDS; 5.0, 2.5, 1.25 and 0.6 μg of 2AT-L or 2AM-L in each lane
[2] = target: 2AT-L, covalently stabilized triangular trimer composed of three Aβ17-36 β-hairpin peptides (2AM-LCC); assay: crystal structure; X-ray crystallographic structure of 2AT-L at 1.8 Å; assembly seen in the crystal lattice
SDS-PAGE = format: physicochemical; settings: Aβ42, 16.5% Tris-Tricine gel, 0.25–0.016 mM, 10 μL per lane
[3] = ThT aggregation assay of Aβ42; format: physicochemical; settings: 6.25 μM Aβ42 in PBS pH 7.4, 10 μM ThT, 25 °C, quiescent; ex 440 nm, em 485 nm
Description: Figure 3 In vitro characterization of pAb2AT-L with 2AT-L and 2AM-L and Aβ42. (A) Indirect ELISA of pAb2AT-L against 2AT-L, 2AM-L, and BSA. (B) Western blot analysis of pAb2AT-L against a concentration gradient of 2AT-L. SDS-PAGE was performed on a 16.5% Tris-Tricine gel (Bio-Rad); 10 μL was loaded in each lane. (C) Indirect ELISA of pAb2AT-L and 6E10 against Aβ42. (D and E) Western blot analysis of pAb2AT-L (D) and 6E10 (E) against a concentration gradient of Aβ42. SDS-PAGE was performed on a 16.5% Tris-Tricine gel (Bio-Rad); 10 μL was loaded in each lane. (F and G) Dot blot analysis of pAb2AT-L (F) and 4G8 (G) against 6.25 μM Aβ42 aggregated over time in PBS. A 1 μL portion of the Aβ42 solution was spotted in triplicate on 0.2 μm nitrocellulose membranes every 30 min for 5 h and then at 96 h. (H and I) Average integrated spot density from the dot blots in F and G. Integrated density for each spot was determined using ImageJ. (J and K) Change in integrated spot density from the 0-h time point. (L) ThT aggregation assay of 6.25 μM Aβ42. The ThT assay was performed at 25 °C under quiescent conditions in PBS (10 mM Na2HPO4, 1.8 mM KH2PO4, 137 mM NaCl, 2.7 mM KCl) at pH 7.4 containing 10 μM ThT. ThT fluorescence was monitored at 440 nm excitation and 485 nm emission. […]

cells = settings: cited from earlier work
From the text: Like oligomers of full-length Aβ, 2AT-L is toxic toward cells in culture, eliciting toxicity by interacting with the cells and promoting membrane disruption and release of LDH, depleting ATP, and activating caspase-3/7-mediated apoptosis.

Aβ and its aggregates = settings: cited from earlier work
From the text: The 6E10 and 4G8 monoclonal antibodies—among the most extensively used Aβ antibodies in Alzheimer’s disease research—were generated by immunizing mice with a peptide fragment that encompassed the N-terminal half of Aβ (Aβ1–24).[58],[59]

[4] = tested on: Aβ protofibrils in brain and cerebrospinal fluid; settings: Alzheimer's disease transgenic mice; cited from earlier work
From the text: Antibodies that target monomeric, oligomeric, and fibrillar forms of the β-amyloid peptide (Aβ) are valuable tools for Alzheimer’s disease research and have emerged as Alzheimer’s disease therapies.[4],[5] […] These antibodies act by binding Aβ aggregates and facilitating their clearance from the brain, mitigating both the direct and downstream damaging eff ...

With “2AT-L, covalently stabilized triangular trimer composed of three Aβ17-36 β-hairpin peptides (2AM-LCC) (complex)” the stoichiometry N (copies of 2AT-L) [1] was 4 and the stoichiometry N (copies of 2AT-L) [2] was 4.

In the case of Aβ42: 42-amino-acid alloform of Aβ, the “predominant oligomers on SDS-PAGE” value (SDS-PAGE) is reported as “migrate at a molecular weight consistent with a trimer and tetramer”, the “time at which ThT-reactive aggregates begin to form” value [3] is reported as 1 h and the “time at which ThT-reactive aggregates plateau” value [3] is reported as 1.75 h.

For “full-length Aβ: full-length β-amyloid peptide”, the “ATP depletion by full-length Aβ” value (cells) is listed as “ATP depletion”, the “LDH release by full-length Aβ” value (cells) is listed as “promotes LDH release” and the “caspase-3/7 activation by full-length Aβ” value (cells) is listed as “caspase-3/7 activation”.

B1: Donanemab: anti-Aβ antibody drug (antibody, chains of the INN, looked up, V domains shown)
VH: QVQLVQSGAEVKKPGSSVKVSCKASGYDFTRYYINWVRQAPGQGLEWMGWINPGSGNTKYNEKFKGRVTITADESTSTAYMELSSLRSEDTAVYYCAREGITVYWGQGTTVTVSS
VL: DIVMTQTPLSLSVTPGQPASISCKSSQSLLYSRGKTYLNWLLQKPGQSPQLLIYAVSKLDSGVPDRFSGSGSGTDFTLKISRVEAEDVGVYYCVQGTHYPFTFGQGTKLEIK
In the case of B1, the “target of Donanemab” value (Aβ and its aggregates) is listed as “targets N-terminally pyroglutamated Aβ that is aggregated in Aβ plaques”.

B2: Lecanemab: anti-Aβ antibody drug (antibody, chains of the INN, looked up, V domains shown)
VH: EVQLVESGGGLVQPGGSLRLSCSASGFTFSSFGMHWVRQAPGKGLEWVAYISSGSSTIYYGDTVKGRFTISRDNAKNSLFLQMSSLRAEDTAVYYCAREGGYYYGRSYYTMDYWGQGTTVTVSS
VL: DVVMTQSPLSLPVTPGAPASISCRSSQSIVHSNGNTYLEWYLQKPGQSPKLLIYKVSNRFSGVPDRFSGSGSGTDFTLRISRVEAEDVGIYYCFQGSHVPPTFGPGTKLEIK
For B2, the “target selectivity of Lecanemab” value (Aβ and its aggregates) is listed as “selectively targets Aβ protofibrils” and the “Aβ protofibrils in brain and cerebrospinal fluid” value [4] is listed as “reduced Aβ protofibrils in the brain and cerebrospinal fluid”.
